Experimental data: the Immune Epitope Database (IEDB)
pIC50, pKd: −log10 of the molar value.

Assays:
HLA-A*02:01 = assay: IEDB peptide-MHC binding, purified MHC/competitive/fluorescence; ≥ and ≤ were set here for values at or beyond the usual limits of such assays
HLA-A*23:01 = assay: IEDB peptide-MHC binding, purified MHC/competitive/radioactivity; filed as Kd, often an IC50 or EC50 that approximates it; ≥ and ≤ were set here for values at or beyond the usual limits of such assays
HLA-A*24:02 = assay: as above
HLA-A*30:01 = assay: as above
HLA-A*01:01 [1] = assay: as above
HLA-A*30:02 = assay: as above
HLA-A*26:01 = assay: as above
HLA-A*29:02 = assay: as above
HLA-A*01:01 [2] = assay: IEDB peptide-MHC binding, purified MHC/direct/fluorescence; filed as Kd, often an IC50 or EC50 that approximates it; ≥ and ≤ were set here for values at or beyond the usual limits of such assays; details: source organism: SARS-CoV1
HLA-B*15:01 = assay: as above; details: source organism: SARS-CoV1
HLA-A*03:01 = assay: IEDB peptide-MHC binding, purified MHC/competitive/radioactivity; filed as Kd, often an IC50 or EC50 that approximates it; ≥ and ≤ were set here for values at or beyond the usual limits of such assays; details: source organism: Dengue virus 2 Jamaica/1409/1983
[3] = source organism: Dengue virus 3 Martinique/1243/1999
[4] = source organism: Zaire ebolavirus
[5] = source organism: Dengue virus 2 Jamaica/1409/1983
[6] = source organism: Dengue virus 4 Philippines/H241/1956
[7] = source organism: Dengue virus 1 Brazil/97-11/1997
[8] = source organism: Mammarenavirus brazilense
[9] = source organism: Vaccinia virus WR
[10] = source organism: SARS coronavirus Tor2
[11] = source organism: Lassa virus Josiah
[12] = source organism: Mammarenavirus lassaense

Sequence YMDDRDINP has a pIC50 (HLA-A*02:01; source organism: Vaccinia virus) of 4.57.

In the case of AWMVHRQWF, the pKd (HLA-A*23:01; [3]) was 6.47 and the pKd (HLA-A*24:02; [3]) was 7.37.

In the case of GLITNTIAG, the pIC50 (HLA-A*02:01; [4]) was 5.39.

Work on ALTLATGPIS yielded a pKd (HLA-A*30:01; [5]) of 6.66.

Sequence TWLVHKQWFL has a pKd (HLA-A*23:01; [6]) of 6.91.

With RFLAIPPTA the pKd (HLA-A*30:01; [7]) was 6.90.

For ERNRVSTPQG, the pKd (HLA-A*30:01; [6]) was 6.92.

With AIVNAQPKC the pIC50 (HLA-A*02:01; [4]) was ≤ 4.13.

In the case of LASLTPKAQ, the pIC50 (HLA-A*02:01; source organism: Variola virus) was ≤ 3.69.

GSDDIRRLV was tested, and the pKd (HLA-A*01:01 [1]; [8]) was ≤ 4.35, the pKd (HLA-A*30:02; [8]) was ≤ 4.11 and the pKd (HLA-A*23:01; [8]) was ≤ 4.11. For the same sequence, the pKd (HLA-A*26:01; [8]) was ≤ 4.11, the pKd (HLA-A*29:02; [8]) was ≤ 4.10 and the pKd (HLA-A*24:02; [8]) was ≤ 4.11.

MPLGVVTNS gave a pIC50 (HLA-A*02:01; source organism: Sudan ebolavirus) of 4.89.

KMRDTLPAK showed a pKd (HLA-A*30:01; [9]) of 8.80.

For RVSTGSQLA, the pKd (HLA-A*30:01; [7]) was 7.09.

LLEIKDKEQY was tested, and the pKd (HLA-A*01:01 [1]; [10]) was 6.03, the pKd (HLA-A*30:02; [10]) was 5.90 and the pKd (HLA-A*23:01; [10]) was ≤ 4.15. For the same sequence, the pKd (HLA-A*26:01; [10]) was ≤ 4.08, the pKd (HLA-A*29:02; [10]) was 5.45 and the pKd (HLA-A*24:02; [10]) was 4.96.

With DSKEGFFTY the pKd (HLA-A*01:01 [1]; [10]) was 6.70, the pKd (HLA-A*30:02; [10]) was 6.63 and the pKd (HLA-A*23:01; [10]) was ≤ 4.11. For the same sequence, the pKd (HLA-A*26:01; [10]) was 6.00, the pKd (HLA-A*29:02; [10]) was 6.18 and the pKd (HLA-A*24:02; [10]) was ≤ 4.11.

In the case of EQGLIQYPT, the pIC50 (HLA-A*02:01; [4]) was 4.22.

IFFASFYYIW was tested, and the pKd (HLA-A*01:01 [1]; [10]) was 5.90, the pKd (HLA-A*30:02; [10]) was 4.92 and the pKd (HLA-A*23:01; [10]) was 9.28. It also gave a pKd (HLA-A*26:01; [10]) of 5.86, a pKd (HLA-A*29:02; [10]) of 7.50 and a pKd (HLA-A*24:02; [10]) of 7.61.

GLNLEGNGV was tested, and the pIC50 (HLA-A*02:01; [4]) was 4.97.

Work on AAMISLAKK yielded a pKd (HLA-A*30:01; [9]) of 6.82.

ATWAENIQV gave a pIC50 (HLA-A*02:01; source organism: West Nile virus NY-99) of 6.11.

With HHANEYRQY the pKd (HLA-A*01:01 [1]; [10]) was ≤ 4.11, the pKd (HLA-A*30:02; [10]) was 5.16 and the pKd (HLA-A*23:01; [10]) was ≤ 4.11. For the same sequence, the pKd (HLA-A*26:01; [10]) was ≤ 3.99, the pKd (HLA-A*29:02; [10]) was 4.90 and the pKd (HLA-A*24:02; [10]) was ≤ 4.48.

Sequence KSRVERVQV has a pKd (HLA-A*30:01; [9]) of 7.95.

HMVVKSALL showed a pKd (HLA-A*01:01 [1]; [10]) of 4.82, a pKd (HLA-A*30:02; [10]) of 6.02 and a pKd (HLA-A*23:01; [10]) of 4.86. The pKd (HLA-A*26:01; [10]) was 4.88, the pKd (HLA-A*29:02; [10]) was 6.29 and the pKd (HLA-A*24:02; [10]) was 4.91.

RVRYLTRNY gave a pKd (HLA-A*30:01; [9]) of 8.25.

With VYALCTLLHL the pKd (HLA-A*01:01 [1]; [10]) was 4.70, the pKd (HLA-A*30:02; [10]) was ≤ 4.00 and the pKd (HLA-A*23:01; [10]) was 7.40. For the same sequence, the pKd (HLA-A*26:01; [10]) was 4.85, the pKd (HLA-A*29:02; [10]) was 5.25 and the pKd (HLA-A*24:02; [10]) was 7.12.

For NYPLWSQSY, the pKd (HLA-A*24:02; source organism: Homo sapiens) was 6.44.

For RSEELSFTV, the pIC50 (HLA-A*02:01; [4]) was 5.62.

With HVKIPTHLT the pKd (HLA-A*30:01; [9]) was 6.65.

In the case of ICLSGDGWPY, the pKd (HLA-A*01:01 [1]; [11]) was 5.20, the pKd (HLA-A*30:02; [11]) was 6.17 and the pKd (HLA-A*23:01; [11]) was ≤ 4.15. For the same sequence, the pKd (HLA-A*26:01; [11]) was ≤ 4.16, the pKd (HLA-A*29:02; [11]) was 6.43 and the pKd (HLA-A*24:02; [11]) was ≤ 4.15.

LICGLRQLA gave a pIC50 (HLA-A*02:01; [4]) of 6.00.

In the case of IDQIIHDFV, the pIC50 (HLA-A*02:01; [4]) was ≤ 3.71.

For GTKIALLEL, the pKd (HLA-A*30:01; [9]) was 8.87.

FYFTNDVSF was tested, and the pKd (HLA-A*01:01 [1]; [10]) was 4.77, the pKd (HLA-A*30:02; [10]) was ≤ 4.01 and the pKd (HLA-A*23:01; [10]) was 5.83. For the same sequence, the pKd (HLA-A*26:01; [10]) was ≤ 4.65, the pKd (HLA-A*29:02; [10]) was 6.38 and the pKd (HLA-A*24:02; [10]) was 5.55.

Work on RVSTVSQLA yielded a pKd (HLA-A*30:01; source organism: Dengue virus 1 Nauru/West Pac/1974) of 6.45.

KISISSLCK gave a pKd (HLA-A*30:01; [9]) of 7.06.

In the case of EHSWNADLY, the pKd (HLA-A*01:01 [1]; [10]) was ≤ 4.16, the pKd (HLA-A*30:02; [10]) was 7.35 and the pKd (HLA-A*23:01; [10]) was ≤ 4.11. For the same sequence, the pKd (HLA-A*26:01; [10]) was 5.36, the pKd (HLA-A*29:02; [10]) was 6.53 and the pKd (HLA-A*24:02; [10]) was ≤ 4.11.

FFQEVPHVI showed a pKd (HLA-A*23:01; [11]) of 6.62, a pKd (HLA-A*29:02; [11]) of 6.29 and a pKd (HLA-A*24:02; [11]) of 6.15.

Work on SVIDCNTCV yielded a pIC50 (HLA-A*02:01; source organism: Hepatitis C virus genotype 1) of 5.30.

For GFELTSMKY, the pKd (HLA-A*01:01 [1]; [10]) was 5.76, the pKd (HLA-A*30:02; [10]) was 5.74 and the pKd (HLA-A*23:01; [10]) was ≤ 4.11. The pKd (HLA-A*26:01; [10]) was ≤ 4.09, the pKd (HLA-A*29:02; [10]) was 6.88 and the pKd (HLA-A*24:02; [10]) was ≤ 4.11.

NQDLNGNWY was tested, and the pKd (HLA-A*30:02; [10]) was 5.57, the pKd (HLA-A*23:01; [10]) was ≤ 4.11 and the pKd (HLA-A*26:01; [10]) was ≤ 4.46. For the same sequence, the pKd (HLA-A*29:02; [10]) was 6.07, the pKd (HLA-A*24:02; [10]) was ≤ 4.11 and the pKd (HLA-A*01:01 [2]) was 6.55. It also gave a pKd (HLA-B*15:01) of 4.82.

Sequence RTTWSIHAK has a pKd (HLA-A*30:01; [5]) of 7.09 and a pKd (HLA-A*03:01) of 8.16.

Sequence LSRKTFDSEY has a pKd (HLA-A*01:01 [1]; [5]) of 5.74 and a pKd (HLA-A*30:02; [5]) of 6.20.

For VDINLIPLI, the pKd (HLA-A*01:01 [1]; [12]) was 4.71, the pKd (HLA-A*30:02; [12]) was ≤ 4.11 and the pKd (HLA-A*23:01; [12]) was 5.79. The pKd (HLA-A*26:01; [12]) was ≤ 4.11, the pKd (HLA-A*29:02; [12]) was ≤ 4.10 and the pKd (HLA-A*24:02; [12]) was 5.53.

In the case of LYIAENGEL, the pKd (HLA-A*23:01; [8]) was 6.61, the pKd (HLA-A*29:02; [8]) was ≤ 4.68 and the pKd (HLA-A*24:02; [8]) was 5.77.

LLNLSGVNN was tested, and the pIC50 (HLA-A*02:01; [4]) was ≤ 3.78.

LWMAEIPLQW showed a pKd (HLA-A*23:01; [3]) of 7.86 and a pKd (HLA-A*24:02; [3]) of 7.41.

For YYSLLMPIL, the pKd (HLA-A*01:01 [1]; [10]) was ≤ 4.11, the pKd (HLA-A*30:02; [10]) was ≤ 4.09 and the pKd (HLA-A*23:01; [10]) was ≤ 4.36. For the same sequence, the pKd (HLA-A*26:01; [10]) was 4.86, the pKd (HLA-A*29:02; [10]) was ≤ 4.12 and the pKd (HLA-A*24:02; [10]) was ≤ 4.11.
